Test results as given in a protein production outcome set (Wang et al. 2014).

Test: label from the status in PepcDB records
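Also: failed if final PepcDB status was selected cloned or expressed and not failed if soluble or beyond.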

Sequence	protein production
MRAPLPELPAGTRFGAWAIDRLIGAGGMGQVYLGHRADGAYEREVAIKLVAADALDAQGRALFEFECRLLAQMVHPAIAQIHDVGTDAHGQPYLVMEYLRGEPITWWCDEHRLSLHARVLLMLRVGEAVQHAHQKGVIHRDLKPSNVLVSEIDGRPMPGVIDFGIAVDATNPGMTYAHDRGTPGYMSPEQARGAQDVDARSDIYALGAMFYELSCGLAPVAGRDGVPQPPSQRVAAVPADARARICAARATTYQKLHEQLRDGLDAIVLRALEPQPGARYASVSALLDDLHRWLDGYPPRALQASRWLRLRKFTQRHRSGVAAAGLAAIAVVAGLGATLWSLQQAARDAQRAQVTGDFMSSVLSSVDPGVARDLDKTLMLRVMQQASQRAARELADQPDARTQVELTLGRTLIALANFPQAVEHLRIAQTLAQQTAGAGSLPALKAASMLGQALTGDGKPGDAERVLRQGIAQAARGDAQQQAMGNELRAWLAWALREQGRMRDALAESRHAYVAALANASSSADQRIDAGNSYAAMLADNGQLVPAIALQRSLLRERMAMRGPEHPLVVSMRNSLAVFLLMQRDFAGAEAELVPLLRVTRTLYGESAADTLMIEGNLAGALRQQGKVAEAGPYYRRALERARAAFGNDAPVTIAYRSNHAFWLLDDGQVDASLAEQRAALTASERVLGRAHPQTAEILRGMSEAERRLGQTVAARDHARQALQILTGIFGDADAPLRAARQTLASATPPADSREAEATTAVAQR	failed
MNSLPIADLLASAVIAACIVISTMRGVIAEAGSMVAWVVSFFFAKLFAAPFADLAFASFQPRLFALALSFISLFVIACLIQKMLRSLLTGAVSAVGLGFANRILGGVFGALKGVLIVTLLIMLASKTDLPDTEEWQQSYTVPFFVSLSEAVLNHTDNAPESLDDD	failed
MVLWHKKDRKLGKHLRSVLSVSNNSPLSPAAFSGFKAVIKGIEKERIAGVGKTEGIKNEKTAGVGKTEGIEKERIAGVGKTEGIENTEGTEKAGEIKNNEKIKKAEETENILEIEKTFRNKKKQGVSKGDVDKENSTAFLYNTEAKKLTFHGNIYEILPLFLNVRNLYASLPFFEELQACAERLEKDPQDATALFQKAVLMYKARRFETALQLTAKVLKIIPDDHRVWYNRGVILSEMGRLEEAIAAYDRTIELEPAFEIAWDNKGVVLARLGRFEEALEIYDKILQKFPEYAEAWAGKGSIFLALDREEEALEAYSSALRIRPEYLEALTSTGSLLSRLGRYEESLKIYDKALQLVPKDPRLLAAKGFVLSEMGKQEEALENCNRALELQPGFVPALEIKVRILSEIGRQKNKTSQ	failed
MKKTLLAIVAVSALSACRQAEEGPPPLPRQISDRSVGHYCSMNLTEHNGPKAQIFLNGKPDQPVWFSTIKQMFGYTKLPEEPKGIRVIYVTDMGNVTDWTNPNADTEWMDAKKAFYVIDSGFIGGMGAEDALPFGNKEQAEKFAKDKGGKVVGFDDMPDTYIFK	failed
MVQTRSQDDSKDKGKEVEGANPLEERMLRLESMMDAHSKEMMKHMAEMTMVMSRSTAHKLREEHSSGERSLPRSSTSTDDRVGYQDHRRDQGQDQDHRRDQQQNQDHRRDNRLDQVRYEPQQQHYGNLTRLGKIDLPRFDGTGIKEWLFKVEEFFGIDFTPADLKVKMVAIHFDSHAATWHHSFMQSGVGLEVLYDWPGYVRLLK	failed
MLLTREYIDKAFWQKLIAIGLPVSLQSMLFALLGVVDIFMVSLLGESATAAVGVGNRIFFFNLAVVFGLCGAVTVLASQYYGSGNMAGIRRTLAQSWCISILVTLPFIVLYAIFDEEIVSFMSDDPEYVTYARDYLVVTGFSLIATAIVVPIEAVLRSVGQTKLATNVSISAIVVNAVLNSVLIFGLFGFPQWGVFGAAVGTFVSRFFQTAVLIYFFYNRYAHLIPTKFDWAQGRLKQYRQKYFKVSLPMLVHDALWTGGLIVYSIIYGQLGVSELAIISFLSPIEGVLISTFMGFAVAASVLLGNDIGAKHYDRVEKTAWWYVLTSAILATLLFFLVWLSSPLIHHLLVLSPLTDAEMALNVCLVMALGMILRVFNMVGIGGVLKSGADIRYSIFIDTFGQWAIGIPLTYYTGMVLGLPLHFVLMSLLAEEFVKGVLTTYRIQSKRWINNMVEDDQTVTA	failed
MSSPFPADTPSSNRPSNSSPPPSSIGAGFGSSSGLDSQIGSRLHFPSSSQPHVSNSQTGPFVNDSTQFSSQRLQTDGSATNDMEGNEPARSFKSRALNHVKKVDDVTGEKVREAFEQFLEDFSVQSTDTGEVEKVYRAQIEFMKIYDLNTIYIDYQHLSMRENGALAMAISEQYYRFLPFLQKGLRRVVRKYAPELLNTSDSLKRSEGDEGQADEDEQQDDDMNGSSLPRDSGSSAAPGNGTSAMATRSITTSTSPEQTERVFQISFFNLPTVHRIRDIRSEKIGSLLSISGTVTRTSEVRPELYKASFTCDMCRAIVDNVEQSFKYTEPTFCPNPSCENRAFWTLNVTRSRFLDWQKVRIQENANEIPTGSMPRTLDVILRGDSVERAKPGDRCKFTGVEIVVPDVTQLGLPGVKPSSTLDTRGISKTTEGLNSGVTGLRSLGVRDLTYKISFLACHVISIGSNIGASSPDANSNNRETELQMAANLQANNVYQDNERDQEVFLNSLSSDEINELKEMVKDEHIYDKLVRSIAPAVFGHEAVKKGILLQMLGGVHKSTVEGIKLRGDINICVVGDPSTSKSQFLKYVVGFAPRSVYTSGKASSAAGLTAAVVRDEEGGDYTIEAGALMLADNGICCIDEFDKMDISDQVAIHEAMEQQTISIAKAGIHATLNARTSILAAANPVGGRYNRKLSLRGNLNMTAPIMSRFDLFFVILDDCNEKIDTELASHIVDLHMKRDEAIEPPFSAEQLRRYIKYARTFKPILTKEARSYLVEKYKELRKDDAQGFSRSSYRITVRQLESMIRLSEAIARANCVDEITPSFIAEAYDLLRQSIIRVDVDDVEMDEEFDNIESQSHAASGNNDDNDDGTGSGVITSEPPADIEEGQSEATARPGTSEKKKTTVTYDKYVSMMNMIVRKIAEVDREGAEELTAVDIVDWYLLQKENDLGSLAEYWEERRLAFKVIKRLVKDRILMEIHGTRHNLRDLENEENENNKTVYVIHPNCEVLDQLEPQDSS	failed
MDATMVFKRLLGSLGVGAPTVDTVLDPAPVLPGGTLTGQVHLEGGQTDFDIEHITLELVARVEAEHEDGEDEGVVVFDRFTVGGGFRLGAEEPRSVPFRVTLPWETPITELYGQPLGIVLGVRTELAVADAKDKGDLDQLTVTALPVQEAVLEAFGQLGFGFGSADLEYGHIGGTGQQLPFYQEIELVPAPQYADRLNEIELTFLAGPGGLEVVLEADKRGGLLSSGHDAVTRFSVGHHDARDWAAEVEGWVRQLVEHHTTYGAPGTHGHSTPYAGHGHHDPHGNGGRHHDDHRSGPGVGTAVAAGAAGLAVGVVGGMVAAEVVDEVGDFFEGDDEEEDEG	not failed
MSGGRAQKPRPAPLRLAKPRPSSVGPAPRGSPGARRPAMSARHAPLLAGRVRSRAPRRFPDRGGGRRRQSSPVRAMSSPAVARASPGGNREASGGPRSRNGPWEVGGGGERLERAGAESGRWELLLRRGELLALGGHLKGALEAFAAALRRGAPARPERLGSLVDCLVFSYRLRHGLRWSAAPAAGAAGLLSCLSCRGFLSEPVTVPCGHSYCRRCLRRELRARCRLCRDRLPPAAAASEGTPRPPPLAAAIADFRTSVVLNHLAEKWFPGQRERARAAGRLGELLHEGRYREALAAACDALRAEPSDLTLKIYRAESYAGLQEFKAALEDLNAVLFQLPNWPEVYFRKGKVLQDAGFLGDALQLFLQCLALDEDFAPAKLQVEKILCDLLSPENVREGLKESSWSSLPCIKSKPLGFPSVMEQPHSPAELGLKQPEERVEDAPEPVKGSLSRAQSAQAISAAAVPAREDGLKRVCSEPLLSAQGKGVLLKRKLSLLEQDVLINEDGRSKLKKQSESPSEDCMFSIAYGDIPEELIDVSDFECSLCMRLFFEPVTTPCGHSFCKNCLERCLDHAPYCPLCKESLKEYLADRRYCVTQLLEELIVKYLPDELSERKKIYDEETAELSHLTKNVPIFVCTMAYPTVPCPLHVFEPRYRLMIRRSIQTGTKQFGMCVSDTQNSFADYGCMLQIRNVHFLPDGRSVVDTVGGKRFRVLKRGMKDGYCTADIEYLEDVKIENGDEIRSLRELHDSVYSQACSWFQNLRDRFRSQILQHFGSMPEREENLQATPNGPAWCWWLLAVLPVDPRYQLSVLSMKSLEERLTKIQHILTYFSRDQSK	failed
MIQMVKRVHIFDWHKEHARKIEEFAGWEMPIWYSSIKEEHLAVRNAVGIFDVSHMGEIVFRGKDALKFLQYVTTNDISKPPAISGTYTLVLNERGAIKDETLVFNMGNNEYLMICDSDAFEKLYAWFTYLKRTIEQFTKLDLEIELKTYDIAMFAVQGPKARDLAKDLFGIDINEMWWFQARWVELDGIKMLLSRSGYTGENGFEVYIEDANPYHPDESKRGEPEKALHVWERILEEGKKYGIKPCGLGARDTLRLEAGYTLYGNETKELQLLSTDIDEVTPLQANLEFAIYWDKDFIGKDALLKQKERGVGRKLVHFKMIDKGIPREGYKVYANGEMIGEVTSGTLSPLLNVGIGIAFVKEEYAKPGIEIEVEIRGQRKKAVTVTPPFYDPKKYGLFRET	not failed
MGHHHHHHSHMLPPEQWSHTTVRNALKDLLKDMNQSSLAKECPLSQSMISSIVNSTYYANVSAAKCQEFGRWYKHFKKTKDMM	not failed
MEITKIRGTLPSITYWNSTTPIKYTYNGTTYTGYMGNYWSDYNGTDSDGDGIGDTSYTVPNDLGTDNHPLMQPFENYNLEHHHHHH	failed
MSDSSPTINFINFNQTGTCISLGTSKGFKIFNCEPFGKFYSEDSGGYAIVEMLFSTSLLALVGIGDQPALSPRRLRIINTKKHSIICEVTFPTSILSVKMNKSRLVVLLQEQIYIYDINTMRLLHTIETNPNPRGLMAMSPSVANSYLVYPSPPKVINSEIKAHATTNNITLSVGGNTETSFKRDQQDAGHSDISDLDQYSSFTKRDDADPTSSNGGNSSIIKNGDVIVFNLETLQPTMVIEAHKGEIAAMAISFDGTLMATASDKGTIIRVFDIETGDKIYQFRRGTYATRIYSISFSEDSQYLAVTGSSKTVHIFKLGHSMSNNKLDSDDSNMEEAAADDSSLDTTSIDALSDEENPTRLAREPYVDASRKTMGRMIRYSSQKLSRRAARTLGQIFPIKVTSLLESSRHFASLKLPVETNSHVMTISSIGSPIDIDTSEYPELFETGNSASTESYHEPVMKMVPIRVVSSDGYLYNFVMDPERGGDCLILSQYSILMD	failed
MFEGQPKGLYALALANTGERFGYYTMLAIFTLFLQAKFGYTAAETSTIFGCFLAAVYFIPFFGGILADKFGYGKMVTMGIVVMFIGYALLAIPTSDNSGKIMMFGALALIACGTGLFKGNLQVMVGNLYDAPEYSSKRDTAFSIFYMAINIGAMYAPTAATKVTNYMLGKAGLSYVPQIPSLAHQYLDGTITPANQATLESLQAAQNFTGDIATFCTTYIDKLSEAYNYGFGVACVSLIISMLIYVAFRSTFKHADYNSKQAKPANVVEEKLTPEQTKQRIVALLLVFAVVIFFWMAFHQNGLTLTFFARDYTAQEVTGLDRLGFNIVNLTFLLIVIYGLFSLFQGKTGKSKTIAGVVVMVALLCLGWSYTSMDPTINILPQIFQQFNPFFVIALTPVSLAVFGYLARKGKEPSAPRKIGIGMMIAVCGFLIMAIGSIGLPTPDALAASGIEKDALVSPNWLISTYLVLTFAELFLSPMGISFVSKVAPPKYKGMMMGGWFAATAIGNYLVAIIGYLWGGMQLWMVWSVLIVCCLLAALFIFSIMKKLEKVA	failed
MHGTNPVPKLPKKIPMQADPNAAPPALDDETLAFAARLFQYARMGHAEELAELFGQGLPANLRNDKGDSLLMLAAYNGQAATARVILEAGGDPELANDRGQTPLAGAAFKGDADIVRLLLEHGAQVDGAGDGTRTALMVAAMFDRTEIVDLLLAQGADPSRRDASGMSAADMARQMGAQNTPAQLERAQGDRAG	failed
